The text below walks through data of patent US10654939 (BEIJING MABWORKS BIOTECH, dated 2020).

Like-named read-outs stand apart in the source and are kept apart here.

For assay [1], the target named is T1, mouse CD40 expressed on HEK293A cells (mouse, UniProt P27512 20-289).
T1 construct: also called HEK293A/mouseCD40
In words: FACS, HEK293A/mouseCD40 cells. On the technique in general: In flow cytometry, cells or beads pass a laser one at a time.

The target of assay [2] is T2, recombinant human CD40 (ECD)-his (human, UniProt P25942 21-193).
T2 construct: Bought protein; also called hCD40(ECD)-his; TNFRSF5
In words: SPR (Biacore 8K), hCD40(ECD)-his coupled to chip, antibody injected. The protocol: SPR assays were used to determine the binding affinity of the chimetic or humanized anti-CD40 antibodies to human CD40 with the BIAcore™ 8K instrument (GE Life Sciences). Briefly, 100-200 response units (RU) of human CD40 (ECD)-his protein (Sino Biological, CN, Cat #: 10774-H08H) were coupled to CM5 biosensor chips (Cat #: BR-1005-30, GE Life Sciences), followed by blocking of un-reacted groups with 1M ethanolamine. Serially diluted antibodies at concentrations ranging from […] were injected into the SPR running buffer (HBS-EP buffer, pH7.4, GE Life Sciences; US; Cat #: BR-1006-69) at 30 μL/minute. The binding capacity was calculated with the RUs of blank controls subtracted. The association rate (k_a) and dissociation rate (k_d) were calculated using the one-to-one Langmuir binding model (BIA Evaluation Software, GE Life Sciences). The equilibrium dissociation constant K_D was calculated as the k_d/k_a ratio.
In general terms: SPR reads the build-up and loss of mass on a sensor chip optically.

For assay [3], the target named is Full-length CD40 ECD (amino acid 21-193, human CD40) with mFc-tag (human). In words: ELISA on recombinant CD40 ECD proteins with mFc tag (Example 16); antibody concentration not given. (In general: In an ELISA, binding on a coated surface is turned into a signal by an enzyme label.)
Assay [4] concerns the target T3, CD40 ECD Truncant 1 (amino acid 61-193) with mFc-tag (human).
T3 construct: mFc-tag at the C terminus; also called CRD2/3/4
Described as above.

Assay [5] has as its target T4, CD40 ECD Truncant 2 (amino acid 104-193) with mFc-tag (human).
T4 construct: mFc-tag at the C terminus; also called CRD3/4
The assay is described as above.

In assay [6] the target is T5, CD40 ECD Truncant 3 (amino acid 145-193) with mFc-tag (human).
T5 construct: mFc-tag at the C terminus; also called CRD4
T5 sequence (chain, as listed by the source limits assumed): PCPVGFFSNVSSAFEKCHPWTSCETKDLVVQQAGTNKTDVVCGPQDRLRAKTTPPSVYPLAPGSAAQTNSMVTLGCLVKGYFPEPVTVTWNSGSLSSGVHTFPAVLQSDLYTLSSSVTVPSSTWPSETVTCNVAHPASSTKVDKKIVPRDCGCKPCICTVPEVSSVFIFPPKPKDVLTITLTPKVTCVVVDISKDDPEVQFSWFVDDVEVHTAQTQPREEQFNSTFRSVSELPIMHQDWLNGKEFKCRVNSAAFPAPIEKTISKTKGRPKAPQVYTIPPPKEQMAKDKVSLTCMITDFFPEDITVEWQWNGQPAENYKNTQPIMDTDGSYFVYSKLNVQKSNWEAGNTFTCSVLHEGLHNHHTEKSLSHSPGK
The assay is described as above.

For assay [7], the target named is T6, CD40 ECD Truncant 4 (amino acid 38-193) with mFc-tag (human).
T6 construct: Truncated CRD1; mFc-tag at the C terminus; also called CRD delta1/2/3/4
T6 sequence (chain, as listed by the source limits assumed): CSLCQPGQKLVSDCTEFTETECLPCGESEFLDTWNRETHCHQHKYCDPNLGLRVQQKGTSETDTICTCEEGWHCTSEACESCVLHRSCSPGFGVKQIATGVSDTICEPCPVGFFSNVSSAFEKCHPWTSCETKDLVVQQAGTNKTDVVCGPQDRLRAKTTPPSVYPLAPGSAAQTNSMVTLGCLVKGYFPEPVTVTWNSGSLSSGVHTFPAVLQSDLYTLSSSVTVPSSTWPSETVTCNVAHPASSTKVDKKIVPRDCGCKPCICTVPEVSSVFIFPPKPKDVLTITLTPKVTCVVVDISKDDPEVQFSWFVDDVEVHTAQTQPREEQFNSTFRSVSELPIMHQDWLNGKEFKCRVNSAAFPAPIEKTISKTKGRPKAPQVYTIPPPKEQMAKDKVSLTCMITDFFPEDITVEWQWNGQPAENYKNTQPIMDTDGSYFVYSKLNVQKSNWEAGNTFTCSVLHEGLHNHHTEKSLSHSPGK
The assay is described as above.

In assay [8] the target is T7, CD40 ECD Truncant 5 (amino acid 21-37 & 61-193) with mFc-tag (human).
T7 construct: Truncated CRD1; mFc-tag at the C terminus; also called CRD delta1/2/3/4
T7 sequence (chain, as listed by the source limits assumed): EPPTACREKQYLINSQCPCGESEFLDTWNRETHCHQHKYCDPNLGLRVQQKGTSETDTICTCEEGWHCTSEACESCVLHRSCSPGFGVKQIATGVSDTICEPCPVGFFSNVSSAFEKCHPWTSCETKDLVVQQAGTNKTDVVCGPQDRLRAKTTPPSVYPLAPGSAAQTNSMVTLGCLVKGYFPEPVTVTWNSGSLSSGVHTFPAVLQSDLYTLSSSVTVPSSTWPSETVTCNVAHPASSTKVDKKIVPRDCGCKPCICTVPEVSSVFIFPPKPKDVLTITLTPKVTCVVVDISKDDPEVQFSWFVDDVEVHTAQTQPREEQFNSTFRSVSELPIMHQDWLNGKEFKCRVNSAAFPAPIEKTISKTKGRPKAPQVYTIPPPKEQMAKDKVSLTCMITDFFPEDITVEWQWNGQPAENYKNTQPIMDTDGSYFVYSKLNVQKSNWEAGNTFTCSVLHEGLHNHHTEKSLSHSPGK
The description is as above.

Assay [9] addresses T8, CD40 ECD Mutant 1 (amino acid 21-193, R7A/E8A) with mFc-tag (human).
T8 construct: Signal peptide left out
The description is as above.

Assay [10] concerns the target T9, rhesus CD40 expressed on HEK293A cells (rhesus monkey, UniProt P25942 21-277 (human entry)).
T9 construct: also called HEK293A/rhesusCD40
T9 chain: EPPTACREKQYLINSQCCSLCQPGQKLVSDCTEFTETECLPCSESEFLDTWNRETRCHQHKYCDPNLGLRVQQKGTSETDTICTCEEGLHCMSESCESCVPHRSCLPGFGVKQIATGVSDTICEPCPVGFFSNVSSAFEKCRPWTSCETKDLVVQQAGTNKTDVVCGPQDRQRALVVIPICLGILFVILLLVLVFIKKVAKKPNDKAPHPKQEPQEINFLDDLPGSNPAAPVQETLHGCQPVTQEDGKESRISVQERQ
The assay can be described thus: FACS on HEK293A/rhesus CD40 cells, serially diluted antibody (Example 14, protocol of Example 5). The protocol:
Example 5 Mouse Anti-CD40 Monoclonal Antibodies Bound to Human and Rhesus CD40 Expressed on HEK293A Cells To further determine whether anti-CD40 antibodies bound to human, monkey or mouse CD40 expressed on HEK293A cells, a cell-based binding assay by FACS was performed using the HEK293A cells stably overexpressing human, monkey or mouse CD40 as generated in Example 1, respectively. Briefly, 10^5 HEK293A cells were seeded into each well of the 96-well plates and serially diluted anti-CD40 antibodies were added to the plates. After incubated at 4° C. for 1 hour, plates were washed 3 times with PBST. Then, an APC coupled Goat Anti-Mouse IgG (BioLegen, US, Cat #: 405308) diluted 500× was added to the plates. After incubation at 4° C. for 1 hour, the plates were washed with PBS for 3 times and then cell fluorescence was monitored using a FACS machine (BD).
The chimeric and humanized anti-CD40 antibodies were further characterized for their ability of binding to HEK293A/humanCD40 cells and HEK293A/rhesus CD40 cells, following the protocols described in Example 5. They were also tested for their ability to activate CD40 signaling in HEK-Blue assay, and to promote dendritic cell maturation, following the protocols in Example 7 and Example 9, respectively, the dendritic cells collected form three healthy human donors. IL-12(p40) secretion by the dendritic cells was measured by using human IL12(p40) ELISA kit (BD, US, Cat #: 551116) following themanufactor's instruction.

For assay [11], the target named is T2, recombinant human CD40 (ECD)-his. In words: ELISA on coated recombinant TNFRSF proteins, serially diluted antibody (Example 17).
Assay [12] has the same target. Described as above. This is another data set of the same source.

T3 sequence (chain, as listed by the source limits assumed): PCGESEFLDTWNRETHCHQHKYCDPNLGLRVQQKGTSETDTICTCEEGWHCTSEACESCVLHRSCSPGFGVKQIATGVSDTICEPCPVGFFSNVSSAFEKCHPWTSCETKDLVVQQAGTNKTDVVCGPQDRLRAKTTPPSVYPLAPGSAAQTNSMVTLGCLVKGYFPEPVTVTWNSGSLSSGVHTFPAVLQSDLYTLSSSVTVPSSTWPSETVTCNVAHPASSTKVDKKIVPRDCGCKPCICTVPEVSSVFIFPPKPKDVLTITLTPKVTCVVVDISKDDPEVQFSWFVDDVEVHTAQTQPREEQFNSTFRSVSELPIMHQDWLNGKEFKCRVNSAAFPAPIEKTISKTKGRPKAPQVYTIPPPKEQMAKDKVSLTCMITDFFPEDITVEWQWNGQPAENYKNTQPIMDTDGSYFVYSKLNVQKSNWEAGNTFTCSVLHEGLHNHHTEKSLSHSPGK
T8 sequence (chain, as listed by the source limits assumed, stated change not applied): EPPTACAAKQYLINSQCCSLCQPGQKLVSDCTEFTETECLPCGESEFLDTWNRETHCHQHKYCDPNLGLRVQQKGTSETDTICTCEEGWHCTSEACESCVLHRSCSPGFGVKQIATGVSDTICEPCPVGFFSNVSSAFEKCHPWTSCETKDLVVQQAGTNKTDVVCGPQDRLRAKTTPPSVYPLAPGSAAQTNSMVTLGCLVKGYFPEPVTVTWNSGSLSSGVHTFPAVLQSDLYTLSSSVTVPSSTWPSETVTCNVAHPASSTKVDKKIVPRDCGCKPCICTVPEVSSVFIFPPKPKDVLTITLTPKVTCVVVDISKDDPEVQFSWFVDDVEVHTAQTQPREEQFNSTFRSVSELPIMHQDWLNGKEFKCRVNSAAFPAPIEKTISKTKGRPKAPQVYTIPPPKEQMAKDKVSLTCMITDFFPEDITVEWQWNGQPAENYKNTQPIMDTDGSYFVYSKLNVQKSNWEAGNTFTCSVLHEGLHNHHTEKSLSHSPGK
T4 sequence (chain, as listed by the source limits assumed): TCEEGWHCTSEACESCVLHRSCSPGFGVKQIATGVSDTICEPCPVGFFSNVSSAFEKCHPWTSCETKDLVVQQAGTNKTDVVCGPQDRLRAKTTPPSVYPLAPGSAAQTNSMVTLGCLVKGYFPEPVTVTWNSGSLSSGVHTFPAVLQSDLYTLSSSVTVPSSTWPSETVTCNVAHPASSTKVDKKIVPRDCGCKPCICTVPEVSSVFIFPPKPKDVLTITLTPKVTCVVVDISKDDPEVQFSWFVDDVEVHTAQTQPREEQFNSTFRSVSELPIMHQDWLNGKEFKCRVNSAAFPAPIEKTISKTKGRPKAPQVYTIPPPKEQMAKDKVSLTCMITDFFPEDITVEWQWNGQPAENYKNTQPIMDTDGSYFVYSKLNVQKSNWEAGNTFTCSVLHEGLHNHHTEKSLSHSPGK
T1 sequence (P27512 20-289 limits assumed): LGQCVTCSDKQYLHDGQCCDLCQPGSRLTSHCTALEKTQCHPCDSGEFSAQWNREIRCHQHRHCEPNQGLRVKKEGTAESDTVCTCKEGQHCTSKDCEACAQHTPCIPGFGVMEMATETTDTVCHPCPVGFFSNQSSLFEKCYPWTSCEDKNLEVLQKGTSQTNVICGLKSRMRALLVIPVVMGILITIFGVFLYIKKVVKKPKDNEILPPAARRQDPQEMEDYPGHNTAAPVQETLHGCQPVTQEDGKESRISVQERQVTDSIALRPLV

B1: chimeric 13A2 antibody (antibody, human IgG2, kappa, V domains shown)
VH: EVKLEQSGPGLVKPSQSLSLTCSVTGYSITTNYYWNWIRQFPGNKLEWMGYINYDGSNNYNPSLKNRISITRDTSKNQFFLKLNSVTTEDTATYYCARLDYWGQGTSVTVSS
VL: DIVMTQSPLSLPVSLGDQASISCRSSQSLENSNGNTFLNWFLQKPGQSPQLLIYKVSNRFSGVLDRFSGTGSGTDFTLTISRVEAEDLGVYFCLQVTHVPFTFGSGTKLEIKR
notes: Mouse variable regions with human IgG2/kappa constant regions
The term Kd denotes the free concentration of one partner at which half of the binding sites on the other are occupied at equilibrium, for simple one-to-one binding. As a reminder, the koff is the first-order rate constant of dissociation. What is called kon is the second-order rate constant of association. As to B1, the binding result in assay [1] was “no binding”; in assay [3], “binds”; in assay [4] it was “no binding”; in assay [5], “no binding”; in assay [6], “no binding”; in [7] it was “no binding”. In addition, the binding result in assay [8] is “no binding”; in assay [9] it was “binds”. Moreover, in assay [2], the Kd was found to be 3.58 nM. Further, in assay [2], the koff was 0.00173 s⁻¹. Besides, the kon in assay [2] was 484000 M⁻¹ s⁻¹.

B2: 13A2-VH3VL2 (antibody, human IgG2, kappa, V domains shown)
VH: QVQLQESGPGLVKPSDTLSLTCAVSGYSITTNYYWNWIRQPPGNKLEWMGYINYDGSNNYNPSLKNRITISVDTSKNQFSLKLSSVTAVDTAVYYCARLDYWGQGTLVTVSS
VL: DVVLTQSPLSLPVTLGQPASISCRSSQSLENSNGNTFLNWFQQRPGQSPRLLIYKVSNRFSGVPDRFSGSGSGTDFTLKISRVEAEDVGVYYCLQVTHVPFTFGQGTKLEIKR
notes: Humanized, human IgG2/kappa
As to B2, in assay [2], the Kd was found to be 2.93 nM. Moreover, the koff in [2] was found to be 0.00242 s⁻¹. For the same molecule, in assay [2], the kon worked out at 825000 M⁻¹ s⁻¹. In addition, the binding result in [10] is reported as “binds”; in assay [3], “binds”; in assay [4], “no binding”; in assay [5], “no binding”; in assay [6] it was “no binding”; in assay [7] it was “no binding”. Moreover, the binding result in assay [8] is on record as “no binding”; in assay [9], “binds”.

B3: 7B4-VH2VL2 (antibody, V domains shown)
VH: QVQLQESGPGLVKPSDTLSLTCAVSGYSITTNYYWNWIRQPPGKGLEWMGYIKYDGSNNYNPSLKNRITISVDTSKNQFSLKLSSVTAVDTAVYYCARLDYWGQGTLVTVSS
VL: DVVLTQSPLSLPVTLGQPASISCRSSQSLENSNGNTFLNWFQQRPGQSPRLLIYKVSNRFSGVPDRFSGSGSGTDFTLKISRVEAEDVGVYYCLQVTHVPFTFGQGTKLEIKR
notes: Humanized, human IgG2/kappa; also called 7B4H2L2
As a reminder, the EC50 (read off the curve) is the midpoint of the concentration-response curve. As for B3, in assay [2], the Kd came to 2.91 nM, the koff was found to be 0.00581 s⁻¹ and the kon was 2e+06 M⁻¹ s⁻¹. Further, the “EC50 (read off the curve)” value in [11] was roughly 0.02 µg/mL. Also, the “EC50 (read off the curve)” value in assay [10] is roughly 0.2 µg/mL.

B4: 13A2-VH3VL3 (antibody, human IgG2, kappa, V domains shown)
VH: QVQLQESGPGLVKPSDTLSLTCAVSGYSITTNYYWNWIRQPPGNKLEWMGYINYDGSNNYNPSLKNRITISVDTSKNQFSLKLSSVTAVDTAVYYCARLDYWGQGTLVTVSS
VL: DVVLTQSPLSLPVTLGQPASISCRSSQSLENSNGNTFLNWFQQRPGQSPRLLIYKVSNRFSGVPDRFSGSGSGTDFTLKISRVEAEDVGVYFCLQVTHVPFTFGSGTKLEIKR
notes: Humanized, human IgG2/kappa
Take B4: the Kd in assay [2] was 7.68 nM. In addition, the koff in [2] was determined as 0.00459 s⁻¹. Besides, the association rate constant (kon) in [2] was 598000 M⁻¹ s⁻¹. The “EC50 (read off the curve)” value in [12] was roughly 0.02 µg/mL. Besides, the binding result in assay [10] is listed as “binds”; in [3], “binds”; in assay [4], “no binding”; in assay [5] it was “no binding”; in assay [6], “no binding”; in assay [7], “no binding”. Moreover, the binding result in assay [8] was “no binding”; in [9], “binds”.
